Test results: patent US20200384109A1 (Novartis, published 2020)

T1: BKV serotype I (ST1) virus-like particles (VLPs) (BK virus serotype I, UniProt P03088 1-362)
T1 construct: VLP made by expressing VP1 in Sf9 insect cells and composed of 72 VP1 pentamers; also called BKV ST1 VLP; BKV ST1
T1 chain: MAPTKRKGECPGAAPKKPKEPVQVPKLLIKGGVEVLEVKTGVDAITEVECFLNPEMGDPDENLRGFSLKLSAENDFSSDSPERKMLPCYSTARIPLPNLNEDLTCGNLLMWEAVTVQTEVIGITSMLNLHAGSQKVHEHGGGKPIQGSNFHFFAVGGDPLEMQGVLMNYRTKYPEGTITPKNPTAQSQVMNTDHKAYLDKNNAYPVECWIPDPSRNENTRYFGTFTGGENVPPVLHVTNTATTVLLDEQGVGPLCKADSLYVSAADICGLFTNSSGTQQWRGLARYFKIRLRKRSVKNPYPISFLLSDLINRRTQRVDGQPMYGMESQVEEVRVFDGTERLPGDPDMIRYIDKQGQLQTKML

B1: NOV581 (antibody, V domains shown)
VH: QVQLVESGGGLVQPGGSLRLSCVASGFTFSGYNMHWVRQAPGKGLEWVSYISNSGRTIYYADSVKGRFTLSRDNAKNSLYLQMNSLRAEDTAVYFCARDRDPQWLGNDALQIWGQGTMVTVSS
VL: EIVLTQSPGTLSLSPGERATLSCRASQSVSSGYLAWYQQKPGQAPRLLIYGASSRATGIPDRFSGSGSGTDFTLTISRLEPEDFAVYYCQQYGTSRKTFGQGTKVEIKR
notes: also called antibody NOV581; clone NOV581
B2: NOV530 (antibody, V domains shown)
VH: QVQLQESGPGLVKPSQTLSLTCTVSGGSISGGGYYWSWIRQHPGKGLEFIGYIYYNRGTYYNPALKSRLTISVDTSKNDFSLKLSSVSAADTAVYYCARCVLGGYGSDAFDRWGQGTTVTVAS
VL: EIVLTQSPVTLSLSPGERAILSCRASQSVSSHLAWYQQKPGQAPRLLIYDASSRANGIPARFSGSGSGTDFTLTISSLAPEDFAVYYCQQRSSWPPSLTFGGGTKVEIRR
notes: also called antibody NOV530; cross-neutralizing IgG NOV530
B3: NOV638 (antibody, V domains shown)
VH: QVQLVQSGAEVKKPGASVKVSCKASGYTFTSYDIIWVRQATGQGLEWMGRMNPTGGNTDYVPKFQGRVTMTRDISLSTAYMELRSLTSEDTAVFYCARGVKSLGVSEIDYWGQGTLVTVSS
VL: QSALTQPPSVSAAPGQKVTISCSGSTSNIANNYVLWYQQLPGTAPKLLIYDNNKRPSGIPDRFSGSKSGTSATLGITGLQTADEADYYCGTWDNSLSVGVFGGGTKLTVLG
notes: also called antibody NOV638

Columns and labels:
[1] = target: T2, BKV serotype IV (ST4) virus-like particles (VLPs) (BK virus serotype IV, UniProt P14996 1-362); experiment: solution equilibration titration (SET) with BKV VLPs
T2 construct: VLP made by expressing VP1 in Sf9 insect cells and composed of 72 VP1 pentamers; also called BKV ST4 VLP; BKV ST4

[2] = target: T1, BKV serotype I (ST1) virus-like …; experiment: solution equilibration titration (SET), antibody 1 pM, BKV VLPs in solution, MSD read-out
JC virus (JCV) = JC virus (JCV) (JC virus, UniProt P03089 1-354); experiment: cell-based or functional assay
[3] = target: T2, BKV serotype IV (ST4) virus-like …; experiment: ELISA on plates coated with BKV ST1 or ST4 VLPs (100 ng/well)
Description: The binding of antibodies to VLPs were analyzed by ELISA. Briefly, Nunc MaxiSorp 384-well plates (Thermo Scientific) were coated with 100 ng/well BKV VLPs to BK serotype I (ST1) or serotype IV (ST4) overnight. Antibodies were serially diluted in PBS with 0.5% BSA and allowed to bind antigen-coated plates for 2 hours. […] Plates were washed with PBS and tetramethylbenzidine (TMB) microwell peroxidase substrate (SeramunBlau Fast, Seramun, Germany) was used to develop the reactions.

Row | Binder | binding result [1] | Kd [2] [nM] | EC50 of virus neutralization (JC virus (JCV)) [nM] | binding result [3]
1 | B1 | no binding | < 0.05 | – | –
2 | B2 | – | < 0.05 | < 1 | –
3 | B3 | – | – | – | no binding
